Values of other authors in patent publication US9867860B2, “Formulations for preventing and treating decreasing platelet cell counts” (priority 2013, dated 2018).

How the values were obtained:
[1] = tested on: patients with ITP and liver disease; settings: for side effects: human, in vivo
[2] = tested on: refractory immune thrombocytopenia; settings: two cases; high-dose vitamin D supplementation and hydroxychloroquine in combination
thrombocytopenia = settings: Vitamin B12 and folate together, deficiency
[3] = tested on: patients with solid tumors who had previously received platelet transfusion because of myelosuppression; settings: randomized, placebo-controlled trial
[4] = tested on: thrombocytopenia associated with chemotherapy, HCV infection, or early liver cirrhosis

For `CC1=NN(c2ccc(C)c(C)c2)C(=O)/C1=N\Nc1cccc(-c2cccc(C(=O)O)c2)c1O` [Eltrombopag], the side effects [1] is listed as “bone marrow fibrosis, thrombosis, and ocular toxicities”.

In the case of `CCN(CCO)CCCC(C)Nc1ccnc2cc(Cl)ccc12` (stereo not shown) [hydroxychloroquine, reference compound], the “treatment outcome of refractory immune thrombocytopenia” value [2] is given as “successfully treated”.

For Romiplostim, the side effects [1] is listed as “bone marrow fibrosis, thrombosis, and ocular toxicities” and the platelet count ([1]; patients with ITP and liver disease, continuous treatment) is listed as “increase platelet count”.

In the case of Vitamin B12, the “correction of thrombocytopenia on repletion” value (thrombocytopenia) is given as “rapidly corrects”.

In the case of vitamin D, the “treatment outcome of refractory immune thrombocytopenia” value [2] is given as “successfully treated”.

B1: IL-11: recombinant human IL-11, cytokine stimulating megakaryocyte maturation (protein, UniProt P20809 22-199, looked up)
Interleukin-11: PGPPPGPPRVSPDPRAELDSTVLLTRSLLADTRQLAAQLRDKFPADGDHNLDSLPTLAMSAGALGALQLPGVLTRLRADLLSYLRHVQWLRRAGGSSLKTLEPELGTLQARLDRLLRRLQLLMSRLALPQPPPDPPAPPLAPPSSAWGGIRAAHAILGGLHLTLDWAVRGLLLLKTRL
In the case of B1, the “reduction of the number of patients in need of platelet transfusions” value [3] is listed as 26%, the “platelet counts, IL-11 group versus peanut skins extract group” value (myelosuppressed mice; d7) is listed as “significantly higher” and the “platelet counts versus control thrombocytopenia group” value (myelosuppressed mice; d7, subcutaneous) is listed as “significantly improved”. For the same molecule, the platelet counts (myelosuppressed mice; d10, subcutaneous) was “further improved”, the other side effects ([4]; human, in vivo) was “dyspnea, atrial arrhythmias, syncope, and fatigue” and the “side effect: edema, share of patients” value ([4]; human, in vivo) was “more than 50 % of patients”. The correction of thrombocytopenia ([4]; thrombocytopenia associated with chemotherapy, HCV infection, or early liver cirrhosis, in some degree) was “could correct thrombocytopenia”.
